Data taken from publication doi:10.1101/2024.05.28.596221.

Target: YjfP (K. pneumoniae)
Test: crystal structure

Question: Which stoichiometry N does the source give for YjfP (enzyme) here?
Answer: 2
